The labels stand for the following.
B1: S. cerevisiae Abp1 (full length; SH3 domain 535-592 mutated) / Hua2 (parent complex)
chain 1: MALEPIDYTTHSREIDAEYLKIVRGSDPDTTWLIISPNAKKEYEPESTGSSFHDFLQLFDETKVQYGLARVSPPGSDVEKIIIIGWCPDSAPLKTRASFAANFAAVANNLFKGYHVQVTARDEDDLDENELLMKISNAAGARYSIQTSSKQQGKASTPPVKKSFTPSKSPAPVSKKEPVKTPSPAPAAKISSRVNDNNDDDDWNEPELKERDFDQAPLKPNQSSYKPIGKIDLQKVIAEEKAKEDPRLVQKPTAAGSKIDPSSDIANLKNESKLKRDSEFNSFLGTTKPPSMTESSLKNDDDKVIKGFRNEKSPAQLWAERKAKQNSGNAETKAEAPKPEVPEDEPEGEPDVKDLKSKFEGLAASEKEEEEMENKFAPPPKKSEPTIISPKPFSKPQEPVKAEEAEQPKTDYKKIGNPLPGMHIEADNEEEPEENDDDWDDDEDEAAQPPLPSRNVASGAPVQKEEPEQEEIAPSLPSRNSIPAPKQEEAPEQAPEEEIEEEAEEAAPQLPSRSSAAPPPPPRRATPEKKPKENPWATAEYDYDAAEDNELTFVENDKIINIEFVDDDWWLGELEKDGSKGLFPSNYVSLGN
chain 2: MQQTKFGKMYLDHDSVVEYSEDEIVEADRITLGYKKRLSMIENQMRHLLEDFSLDVQQIEPILADLQKYYDAFLQLLQKRNKSLQCKRSTHQPVPSPMNSQTSTNAKVNLSGKLMKFQLNSVQKFDEENILRILQNKIEFEHYFQIDKGKKQKVLLLAVYQCLNGPTRLHKVLNIEGIIHNNSIRTILGKQVSSSKWTVFLYDVKLVLLAHRQDVPNLETSKMIVRYGDLFPCALYFKDHTAY

Variants of B1 are the subject of this assay. Nature of the assay: DHFR protein-fragment complementation in yeast (Abp1-DHFR F[1,2] x partner-DHFR F[3]), deep mutational scanning, second methotrexate selection vs reference; S. cerevisiae, DHFR-PCA selection in liquid with methotrexate at 30 C, two 72 h selections (the score uses the second); reference = the pre-selection culture.
Take chain 1 D568V: the screen value was -2.62 DMS score: mean over two replicates of log2(f_test/f_ref + 0.5)/ln 2, minus the synonymous-codon median (not a log2 ….
Consider chain 1 K576C, for which the screen value is -0.496 DMS score: mean over two replicates of log2(f_test/f_ref + 0.5)/ln 2, minus the synonymous-codon median (not a log2 ….
As for chain 1 K576E, the figure is -0.947 DMS score: mean over two replicates of log2(f_test/f_ref + 0.5)/ln 2, minus the synonymous-codon median (not a log2 …; as for chain 1 K576R, 0.467 DMS score: mean over two replicates of log2(f_test/f_ref + 0.5)/ln 2, minus the synonymous-codon median (not a log2 …; as for chain 1 K576A, -0.373 DMS score: mean over two replicates of log2(f_test/f_ref + 0.5)/ln 2, minus the synonymous-codon median (not a log2 ….
In the case of chain 1 I559V, the screen value is -0.155 DMS score: mean over two replicates of log2(f_test/f_ref + 0.5)/ln 2, minus the synonymous-codon median (not a log2 ….
As for chain 1 E547Y, the figure is -0.85 DMS score: mean over two replicates of log2(f_test/f_ref + 0.5)/ln 2, minus the synonymous-codon median (not a log2 …; as for chain 1 T538Y, -0.148 DMS score: mean over two replicates of log2(f_test/f_ref + 0.5)/ln 2, minus the synonymous-codon median (not a log2 …; as for chain 1 T538K, -0.703 DMS score: mean over two replicates of log2(f_test/f_ref + 0.5)/ln 2, minus the synonymous-codon median (not a log2 ….
With chain 1 T538C the figure was -0.268 DMS score: mean over two replicates of log2(f_test/f_ref + 0.5)/ln 2, minus the synonymous-codon median (not a log2 …; with chain 1 T538V, 0.524 DMS score: mean over two replicates of log2(f_test/f_ref + 0.5)/ln 2, minus the synonymous-codon median (not a log2 …; with chain 1 T538R, 0.298 DMS score: mean over two replicates of log2(f_test/f_ref + 0.5)/ln 2, minus the synonymous-codon median (not a log2 ….
With chain 1 T552H the figure was -1.03 DMS score: mean over two replicates of log2(f_test/f_ref + 0.5)/ln 2, minus the synonymous-codon median (not a log2 …; with chain 1 T552G, -0.255 DMS score: mean over two replicates of log2(f_test/f_ref + 0.5)/ln 2, minus the synonymous-codon median (not a log2 …; with chain 1 T552S, 0.616 DMS score: mean over two replicates of log2(f_test/f_ref + 0.5)/ln 2, minus the synonymous-codon median (not a log2 ….
chain 1 T552D: the screen value was -0.688 DMS score: mean over two replicates of log2(f_test/f_ref + 0.5)/ln 2, minus the synonymous-codon median (not a log2 ….
For the variant chain 1 T552N, the screen value was -0.374 DMS score: mean over two replicates of log2(f_test/f_ref + 0.5)/ln 2, minus the synonymous-codon median (not a log2 ….
As for chain 1 V554Q, the figure is 0.94 DMS score: mean over two replicates of log2(f_test/f_ref + 0.5)/ln 2, minus the synonymous-codon median (not a log2 …; as for chain 1 D577S, 0.3 DMS score: mean over two replicates of log2(f_test/f_ref + 0.5)/ln 2, minus the synonymous-codon median (not a log2 ….
With chain 1 D577T, the screen value was -0.226 DMS score: mean over two replicates of log2(f_test/f_ref + 0.5)/ln 2, minus the synonymous-codon median (not a log2 ….
As for chain 1 D577C, the figure is -0.926 DMS score: mean over two replicates of log2(f_test/f_ref + 0.5)/ln 2, minus the synonymous-codon median (not a log2 …; as for chain 1 E575Y, -0.704 DMS score: mean over two replicates of log2(f_test/f_ref + 0.5)/ln 2, minus the synonymous-codon median (not a log2 ….
With chain 1 E575K the figure was 0.0377 DMS score: mean over two replicates of log2(f_test/f_ref + 0.5)/ln 2, minus the synonymous-codon median (not a log2 ….
As for chain 1 E575H, the figure is 0.233 DMS score: mean over two replicates of log2(f_test/f_ref + 0.5)/ln 2, minus the synonymous-codon median (not a log2 ….
For chain 1 E575D, the screen value was -0.0843 DMS score: mean over two replicates of log2(f_test/f_ref + 0.5)/ln 2, minus the synonymous-codon median (not a log2 ….
As for chain 1 L590I, the screen value is 0.43 DMS score: mean over two replicates of log2(f_test/f_ref + 0.5)/ln 2, minus the synonymous-codon median (not a log2 ….
As for chain 1 L590M, the figure is -0.242 DMS score: mean over two replicates of log2(f_test/f_ref + 0.5)/ln 2, minus the synonymous-codon median (not a log2 ….
With chain 1 L590V the figure was -0.52 DMS score: mean over two replicates of log2(f_test/f_ref + 0.5)/ln 2, minus the synonymous-codon median (not a log2 …; with chain 1 W569Y, -0.138 DMS score: mean over two replicates of log2(f_test/f_ref + 0.5)/ln 2, minus the synonymous-codon median (not a log2 …; with chain 1 N592P, 0.755 DMS score: mean over two replicates of log2(f_test/f_ref + 0.5)/ln 2, minus the synonymous-codon median (not a log2 ….
On to chain 1 N592R, for which the screen value is 0.515 DMS score: mean over two replicates of log2(f_test/f_ref + 0.5)/ln 2, minus the synonymous-codon median (not a log2 ….
As for chain 1 N592K, the figure is -0.463 DMS score: mean over two replicates of log2(f_test/f_ref + 0.5)/ln 2, minus the synonymous-codon median (not a log2 …; as for chain 1 N592Y, 0.405 DMS score: mean over two replicates of log2(f_test/f_ref + 0.5)/ln 2, minus the synonymous-codon median (not a log2 …; as for chain 1 N592L, 0.472 DMS score: mean over two replicates of log2(f_test/f_ref + 0.5)/ln 2, minus the synonymous-codon median (not a log2 ….
With chain 1 N592I the figure was 0.311 DMS score: mean over two replicates of log2(f_test/f_ref + 0.5)/ln 2, minus the synonymous-codon median (not a log2 …; with chain 1 N592V, 0.252 DMS score: mean over two replicates of log2(f_test/f_ref + 0.5)/ln 2, minus the synonymous-codon median (not a log2 …; with chain 1 G578K, -0.619 DMS score: mean over two replicates of log2(f_test/f_ref + 0.5)/ln 2, minus the synonymous-codon median (not a log2 ….
Take chain 1 G578M: the screen value was -0.96 DMS score: mean over two replicates of log2(f_test/f_ref + 0.5)/ln 2, minus the synonymous-codon median (not a log2 ….
With chain 1 Y587T the figure was -2.4 DMS score: mean over two replicates of log2(f_test/f_ref + 0.5)/ln 2, minus the synonymous-codon median (not a log2 …; with chain 1 Y587C, -1.01 DMS score: mean over two replicates of log2(f_test/f_ref + 0.5)/ln 2, minus the synonymous-codon median (not a log2 …; with chain 1 Y587K, -2.96 DMS score: mean over two replicates of log2(f_test/f_ref + 0.5)/ln 2, minus the synonymous-codon median (not a log2 ….
Consider chain 1 Y587S, for which the screen value is -2.24 DMS score: mean over two replicates of log2(f_test/f_ref + 0.5)/ln 2, minus the synonymous-codon median (not a log2 ….
Consider chain 1 Y587L, for which the screen value was 1.47 DMS score: mean over two replicates of log2(f_test/f_ref + 0.5)/ln 2, minus the synonymous-codon median (not a log2 ….
As for chain 1 W536E, the figure is -0.841 DMS score: mean over two replicates of log2(f_test/f_ref + 0.5)/ln 2, minus the synonymous-codon median (not a log2 …; as for chain 1 W536H, -0.883 DMS score: mean over two replicates of log2(f_test/f_ref + 0.5)/ln 2, minus the synonymous-codon median (not a log2 ….
With chain 1 S585N the figure was -0.135 DMS score: mean over two replicates of log2(f_test/f_ref + 0.5)/ln 2, minus the synonymous-codon median (not a log2 ….
With chain 1 S589V the figure was 0.593 DMS score: mean over two replicates of log2(f_test/f_ref + 0.5)/ln 2, minus the synonymous-codon median (not a log2 …; with chain 1 S589E, 1.15 DMS score: mean over two replicates of log2(f_test/f_ref + 0.5)/ln 2, minus the synonymous-codon median (not a log2 …; with chain 1 S589M, -0.0692 DMS score: mean over two replicates of log2(f_test/f_ref + 0.5)/ln 2, minus the synonymous-codon median (not a log2 ….
In the case of chain 1 S589K, the screen value was 0.37 DMS score: mean over two replicates of log2(f_test/f_ref + 0.5)/ln 2, minus the synonymous-codon median (not a log2 ….
With chain 1 S589A the figure was 0.074 DMS score: mean over two replicates of log2(f_test/f_ref + 0.5)/ln 2, minus the synonymous-codon median (not a log2 …; with chain 1 A546R, -1.4 DMS score: mean over two replicates of log2(f_test/f_ref + 0.5)/ln 2, minus the synonymous-codon median (not a log2 …; with chain 1 A546Q, 1.19 DMS score: mean over two replicates of log2(f_test/f_ref + 0.5)/ln 2, minus the synonymous-codon median (not a log2 ….
Take chain 1 A546F: the screen value was -0.502 DMS score: mean over two replicates of log2(f_test/f_ref + 0.5)/ln 2, minus the synonymous-codon median (not a log2 ….
As for chain 1 A546Y, the figure is -0.447 DMS score: mean over two replicates of log2(f_test/f_ref + 0.5)/ln 2, minus the synonymous-codon median (not a log2 …; as for chain 1 A546M, -0.41 DMS score: mean over two replicates of log2(f_test/f_ref + 0.5)/ln 2, minus the synonymous-codon median (not a log2 …; as for chain 1 D567Q, -2.97 DMS score: mean over two replicates of log2(f_test/f_ref + 0.5)/ln 2, minus the synonymous-codon median (not a log2 ….
With chain 1 D567H the figure was -2.08 DMS score: mean over two replicates of log2(f_test/f_ref + 0.5)/ln 2, minus the synonymous-codon median (not a log2 …; with chain 1 V565T, 0.578 DMS score: mean over two replicates of log2(f_test/f_ref + 0.5)/ln 2, minus the synonymous-codon median (not a log2 …; with chain 1 N556Q, -0.244 DMS score: mean over two replicates of log2(f_test/f_ref + 0.5)/ln 2, minus the synonymous-codon median (not a log2 ….
As for chain 1 N556E, the figure is -0.0705 DMS score: mean over two replicates of log2(f_test/f_ref + 0.5)/ln 2, minus the synonymous-codon median (not a log2 …; as for chain 1 N556R, 0.377 DMS score: mean over two replicates of log2(f_test/f_ref + 0.5)/ln 2, minus the synonymous-codon median (not a log2 ….
With chain 1 N556F, the screen value was -0.0258 DMS score: mean over two replicates of log2(f_test/f_ref + 0.5)/ln 2, minus the synonymous-codon median (not a log2 ….
With chain 1 L582M the figure was -2.34 DMS score: mean over two replicates of log2(f_test/f_ref + 0.5)/ln 2, minus the synonymous-codon median (not a log2 …; with chain 1 L582F, 0.039 DMS score: mean over two replicates of log2(f_test/f_ref + 0.5)/ln 2, minus the synonymous-codon median (not a log2 …; with chain 1 A545G, -0.421 DMS score: mean over two replicates of log2(f_test/f_ref + 0.5)/ln 2, minus the synonymous-codon median (not a log2 ….
With chain 1 D566N the figure was -1.27 DMS score: mean over two replicates of log2(f_test/f_ref + 0.5)/ln 2, minus the synonymous-codon median (not a log2 ….
With chain 1 D566E the figure was -1.31 DMS score: mean over two replicates of log2(f_test/f_ref + 0.5)/ln 2, minus the synonymous-codon median (not a log2 …; with chain 1 D566H, -2.26 DMS score: mean over two replicates of log2(f_test/f_ref + 0.5)/ln 2, minus the synonymous-codon median (not a log2 …; with chain 1 D566Y, -2.1 DMS score: mean over two replicates of log2(f_test/f_ref + 0.5)/ln 2, minus the synonymous-codon median (not a log2 ….
Regarding chain 1 E563H, the screen value was -1.36 DMS score: mean over two replicates of log2(f_test/f_ref + 0.5)/ln 2, minus the synonymous-codon median (not a log2 ….
chain 1 E563Q: the screen value is -0.159 DMS score: mean over two replicates of log2(f_test/f_ref + 0.5)/ln 2, minus the synonymous-codon median (not a log2 ….
As for chain 1 E563S, the figure is -0.411 DMS score: mean over two replicates of log2(f_test/f_ref + 0.5)/ln 2, minus the synonymous-codon median (not a log2 ….
In the case of chain 1 E563K, the screen value was -0.922 DMS score: mean over two replicates of log2(f_test/f_ref + 0.5)/ln 2, minus the synonymous-codon median (not a log2 ….
With chain 1 A537C the figure was 0.422 DMS score: mean over two replicates of log2(f_test/f_ref + 0.5)/ln 2, minus the synonymous-codon median (not a log2 ….

The record behind these values is article PMC7954794 (2021).
